A short description of the data set: label from the status in PepcDB records.
Consider “MTAILLHNVAKSYRSYDHPWETLWEVFTKTRRHREWTALHPLSLEIAHGEVVGIVGTNGAGKSTLLKLIAGTLTPSAGDIRVNGHVAALLELGAGFHPDMTGRENVYLGASVMGLSSERVDRLYDGIVEFAGLGEFMDQPVKTYSSGMYMRLAFAVATAADPDVLILDEALSVGDGAFARKSFERIIGYKDAGKTILFCSHSLYQVEAICSRVLWLDHGRLVMDGEPARVVSAYAEFLGGGGEGCGTPDQPAPAAVAGSGVGRLTKVEVEADGVEGRKLTVRSGQTDLTVAVGFASDPALPPPSVGLTITGSNGWAVTSASTSNDGLTISRRPDGSGEVELSFPRFPLLKGAYWVNVFLLCEQGIHLYDRIEHAAELEVVQDGLEQGVVSLPRRWSVNGAPASAVSPTVPTVAAWLEHHHHHH”, for which the protein production entry is recorded as “failed”. For “MTAIYIGVMTGTSMDGVDFVAASFDPLHIHATLTLPFEPALRDELMALTLPGDNEIDRMGKADVGLAKLIGHGINMLIEQNHLDRHVIKAIGSHGQTIRHRPEHGFTLQIGDPHIITELTGIPVISDFRRRDMAAGGQGAPLVPAFHQAIFQHSTIHRVILNLGGIANVSLLPAGNPDGVYGFDTGPANILMDAWCERYTGHPYDENGNWAAYGQPIRALLERLQAHEFFSKKPPKSTGREDFNLDWLDDQLADWRNDELEYDELEDTPENVQATLLKLTTRAIKKAIYRSELDTGEVYVCGGGAYNSHLLEQLRWRLRKHHWSVQSTSVLGLSPTWVEATAFAWLAMRFMQQQSANLPSVTGAAGFRILGTITSV” the value was “failed”; for “MTALFFENFAPGHFGRYGPRRVTREEIIAFASEYDPQPMHLDDHAANASMLKGMSGSGWHLSSLMMRMMYDGFIKDTASLGSPGVDEMRWMSPLRPGDDLLLDVEVIEARVSKSRPETGIVTFKCYVRNGHGQMLSEMVSPIIVKRRDAD”, “failed”.

As to “MTALKPALPDYLGNIRIILTRTSHPANIGSAARAMKTMGLHRLTIVTPNLMATPMTENPPVFNPDDVQSFALPEESFILASGAADVLHNAEIVATLDEALADTTIACALTSRRREITAPLQTPRDLVPELLQAANRGEKVALVFGNETFGLSIEEVRACNRLMTINGNPDYFSLNLAQAVQVVCYEIFSQTDSPMTHLQQEDHAATHEQIKGMLAHMESVMDDIGFFNRRNGERLMRRMQSLFGRANTQTEDIDILRGFFNTVSHRIHKKD”, the protein production result was “failed”. For “MTAPAICNTTETVHGIATSLGAVARQASLPRIVGTVVGITVLVVVALLVPVPTAVELRDWAKSLGAWFPLAFLLVHTVVTVPPFPRTAFTLAAGLLFGSVVGVFIAVVGSTASAVIAMLLVRATGWQLNSLVRRRAINRLDERLRERGWLAILSLRLIPVVPFAAINYAAGASGVRILSFAWATLAGLLPGTAAVVILGDAFAGSGSPLLILVSVCTGALGLTGLVYEIRNYRRQHRRMPGYDDPVREPALI” the value was “failed”; for “MTAPIIITGVGKRIGYALAKHLLAQGHKVIGTYRSHYPSIDELQSLGATLIQCDFYDNAQVQNLIEQLSQYPKFRAIIHNASDWLADNSPEFAAHEVMQRMIQVHVNVPYQMNLALASKLQAGAEGEIGASDIIHITDYVAEKGSAKHIAYAASKAALDNLTLSFAAKLAPEVKVNAIAPAMILFNPSDDEAYRQKTLAKAILPKEAGNHEIIELMEYLLNSRYVTGRSHHVDGGRHLR”, “not failed”. The same measure for “MTAPKITQKFNEVETKTTEILNKVLTDDRYFTVTSSFKQDATLGIEYYVTKVTPKTTEAKKSMVQKTFAYDFEKSIDPTSSYFGTTNRETVLSMAKRKRSVVAINASGWRSNGEVMGLQIKDGVLYKDYDAAGYTGAEACVFFDDGTMKVYGNREVDADILISKGARNSFAFGIWLVKDSKPRTAQMTTWADLNVKHPRQAIGQRSDGTLVIITVDGRSLRSSGITAYDMPSLFLSEGCINAFLLDGGGSSQTAVEGKYINNISDGIERAVVDTLTISYPDDDTDSRFFEVQEGRGLATSLNRRVEFIESKPTWNVLDLGFSPDGLIDNTAKFKKALSDLSEKGGGKLHFPKGTYLIGKQNTTSASEKIELPSNVSIVGERRSYTKLLRNPNHSLDELLRITDHNYIEGIEIDGNSSVNKSSCRLIAGGNIKSFKMKDCSLVNATDRGVSIHGIGKSITIEGMYISNIANECINVAEGEIIKLIDSEITFSGTALWVGNAANIFTKNNLAKSLKTFVRYKNSQNAICSGNIITNNIDRAIWGSVREAVFSDNVFKQCHSDYHLYFIQEDTGTNDLIVTGNSVYSDVEGTAFIRTPSDIDRRRVSGNVGNIPSLNLDLEHHHHHH”: “not failed”; for “MTAREIAEHPFGTPTFTGRSWPLADVRLLAPILASKVVCVGKNYADHIAEMGGRPPADPVIFLKPNTAIIGPNTPIRLPANASPVHFEGELAIVIGRACKDVPAAQAVDNILGYTIGNDVSARDQQQSDGQWTRAKGHDTFCPVGPWIVTDLAPFDPADLELRTVVNGDVKQHARTSLMIHDIGAIVEWISAIMTLLPGDLILTGTPAGVGPIEDGDTVSITIEGIGTLTNPVVRKGKP”: “failed”; for “MTATGLERSTANAQSLRNDSHQRSFHRFDGLTASSDITLEAVSSVDAIAAADWDACARSGTIVPHPDGAGGACTTATAAYNPFLSHAFFTALEQSGSASPRTGWGPRHLIAKHEGAIVGIVPCYLKSHSQGEYVFDRGWADAYERAGGNYYPKLQVSVPFTPATGPRLLIRDRIDSARVAGALANGLMALCDLSKASSVHVTFARESEWRFLAECGFLQRTDQQFHWHNAGYSSFDDFLATMNSRHRKGIKRERRDAVASGITIHHLTGADITEDAWDAFFEFYIETGSRKWGRPYLTREFYSLIGQSMSEDVLLVMAKRNGRWIAGAINFIGGDTLFGRHWGAIEHHPFLHFEVCYYQAIDFAITRGLKVVEAGAQGEHKIARGYLPQTTYSAHFIADPALRRAIADYLKRERMYVDEMGRELTEAGPFKKGNIADPA”: “failed”. Take “MTAVSSVYAQRLLITLFLVSFGIYLFVATVTYTPFDPGWMHISSDTQNVSNASGVAGAWIADLMFGFLGWASLLIPIFLFIEAIQIWWPRSFLTRPFRYAAQFFIILATSTLLYLYWNVPADTLENASGGIIGFEVGQSLSGLLTIYGATLFLVAFWVLLITLAFGIQWNRTWATLKATPAYLQDLFYKNVSPNESDYDLTEQPKKTASTSKTTVASEQNHQDQVHDQHLEQTTRTDQKAFDTTTKNFVSDEMVEKLFADVVAKEQYAQQQVQAVNTSIEDPAFEQTIQKAHQLEKEAKRLVPTGEVWKALQTDDSTHKQEIDALLRAADDNEPSVTPMTSDELLANLKAQQAQQNHTQPNNHTAKLNWNDDQIFDELLAAMPNSKIGSDIHTPFVEHREDTTPDHTDHLIQQVEQTLQASSNTLQPKNMTNLDEAEEQSDLLTETVEENPSTHYAGQPQNRSFTSNELTAKDQEKLSKEEFIEAWQETAGKPVEDDFDFDAPLTDASGRPMSRAMQVAQKRRDLPTLPGLELLDKVDPNKKVNFTVEQLERLSELLEIKLQEFNVKAKVVEAQPGPVVTRFELDLAPGVKASKVTNISRDLARSMSMASVRVVEVIPGKPYIGIEVPNSSREMVRLIELLETASFRDPAGLLSMAMGKDISGNPVITDLGKAPHMLVAGTTGSGKSVAVNSMILSMLLKYTPDQLRLILIDPKQLELANYNDIPHLLTPVVTDMKDAVSALNWCVNEMERRYKLMSFLKIRKLADYNRKVEEAIANGEDLIDPTWKPSDSATQERAPRLQPLPSIVIVADEFADMIMQVGKKAEEMITRLAQKSRAAGIHLLLATQRPSVDVITGLIKANIPTRVALRVNSKIDSRTILDAGGAEDLLGHGDMLFLGPGKIEPERVHGAFIGDDEVNRICDAWRERGEPNYVDEILTPFDEEPTSRGFEDGGEGASDRDMLYDQCVAFVLETRKASTSSLQRKFSLGYNRAARIIDQMEENGIVSAMGANGKREILV”: the protein production result is on record as “failed”.

With “MTAYTSWQTPHLFIFIQQDYILDSIPLSSLFITLIILLLLSAFFSSAETGLMSLNRYKIRHLTAQGHKGAKLAEKLLNKTDVLLSLILICNNLINIAASAIATMIGIRLAGDTGIAIATGILTLVMLVFSEILPKTIAVIYPEKISFLASYILTPLKKLLMPLVFLMNLIIKYLMKLMRIRQHEKSGLSIEELRSVVLEAGKFIPTAHQEMLISILDMEKVTVEDIMVPRNDIGGIDIEDDWKAIIRQLNHAAHGRVVLYKGNMDKNILGILRIREAFRLLLDKEEPSKKTLIRAVDEAYFIPEGTPLITQLMHFKTNKERLGLVVDEYGDIKGLVTLADILEEIVGEFTTSTAPTLAEEVKQQSDGSVIIEGSANLRDLNKLFNWHLPINEVRTFNGLILEHLEKIPIEGTQFRLNQLNITVLEVADNMVKKVKVELIE”, the protein production result is given as “failed”. For “MTDARTTVVVITHNRCAEVLRTLDRLAELPERPAVIVTDNGSTDGTAAAVARHHPGVRLLRSGRNLGAVGRNLAVRQVTTPYVAFCDDDSWWAPGSLSGAADLLDRYPAVGSVTARILVEPEGTEDPIVEELRDSPVPRPDWLPGPALGSFLAAATVLRTDAFRAAGGFHPRLWLGGEEELLAADLAANGWWLTYAGQLTIHHHPSGVRDSTVRRSHGIRNTLWFTWLRRPVGPALRRTLHLARTVPRDTASLRAFAEATAALPWVLRERRVLPPEVEARLRALEPAQRDSTARSYTGLEHHHHHH” the value was “failed”. For “MTDDRPPLPPFTRATAAQKVQAAEDAWNTRDPHKVSLAYSPDSVWRNRDTFVTGRAAIVELLTAKWAREREYALRKDLWAFDGNRIAVRFQYECQDADGQWWRSYGNELWEFDEHGLMTRREAGIHDVRIEERERRILGPRPEAERGRSFPVQ” the value was “failed”; for “MTDDVTNVEQPSTASEQQPQDVPAAEPSAAKKRRANKAKSKATAAAIEQRLGHSFADPSLLTTAFTHVSALKSARRTDSYQRLEFLGDHVLGLIVSDMLYRAFPDADEGELSKRLADLVRKETCADVARSLDLVEGIKLGTVGAGAGAKLRKSVLGDICEAVIGAIYLDGGYEAASDFVRRNWTERMRKPARSLRDPKTVLQEWAQARGLPTPVYREVERTGPHHDPQFRVAVILPGLEPAEGLGGSKRAAEKVAASAMLAREGVGTGGNDG”, “failed”. The same measure for “MTDEDSEANALADPDNPPLSAEQLASAPRMPRIKIIRRALKLTQEEFSARYHIPLGTLRDWEQGRSEPDQPARAYLKIIAVDPEGTAAALRKGAT”: “not failed”; for “MTDESDSTAHVSCIIPVYNDSVGIKNTLRSVVGQEYHGYDVYVVDNGSTDGSRRRVRNCAAESDDIQLLVEDEVQGSYAARKTGVQNAESDVLAFLDADETVDEDWLETALGAMQEQDVDYLGCNVELTCPEDTLVGRYNARTGFPVEEYLEDQNYAPTCALLVRRKVFEDVGPFDARLISGGDREFGDRVHDAGYEQGYAENATVYHPARTSLESLAKKNFRVGRGFCQKQRYYPERYGKPGIPPTPSGPSGGDDGDEPDASLTRLAFTLLSIAMLACRGVGYYYEFVVGEENDDIPAPTSLEHHHHHH”: “failed”; for “MTDKIFQEKVGPVALTIVPTQKYKSNKIVFKFRAPLERETVTKRSLLSILLETNSEKYPTQTAFRKQLANLYGANFYTTTAKKGNEHVLTVVFDMIDGQYVSDGENILKDAFAFIEQAIFQPNATNGAFDEEIVVREKENLKSSLEGIYDDKIRFASKRLVEEMFRDDEFRFGAAGVLEDVDAITAKDLYEYYLKFIKEDVIEIFICGDVTKEEVMPLIEKMAFSPRPERKGVFYTKEAPKETRVIHEQQAINQGKLVLGYQTETLFGDDDFVALQLANGLLGGFANSKIFINVREKASLAYYASSRIDSFKGYMIISAGIDEVNYKQALTIIEEQIVAMKQGDFTEDELNQTKEMLINQLLETNDQAQGLIELAYNNVLREANLDLENWIIKIKQATKQEVVAAINKIKPDTIYFLSKGGEELHGKNHI”: “failed”. On to “MTDKKTTEKKETETAATFTEELTAVLEEIKEEPVKEKKKGEIVTIVNETDIQIGEREYRIVKNHRDAFDPERLGERFSEVLARYDYIVGDWGYEQLRLRGFFDTSNRRAAPDQRIDTLEDYLYEYCNFGCAYFVIERTGERKEKTTHRRRRHKKNNRSNAFVEEKSAPANKNSKPVIRTRKEENKKTTTPKQPSPKKSGKGFTIRQREELEHHHHHH”, for which the protein production entry is recorded as “not failed”.

The values are drawn from a protein production outcome set (Wang et al. 2014).
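Also: failed if final PepcDB status was selected cloned or expressed and not failed if soluble or beyond.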
